# Article PMC7335091, “Mechanistic insights into chromatin targeting by leukemic NUP98-PHF23 fusion” (Nature Communications, 2020)
# Where two headings read alike, the source gives them in different places. Non-standard residues stand in square brackets, D forms with d. No end group written: not given here. Lys(Me3) = C[N+](C)(C)CCCC[C@H](N)C(=O)O
# T1: PHF23 PHD finger (PHF23PHD) (Homo sapiens, UniProt Q9BUL5)
# T1 construct: PHD domain (aa 338–393)
# T1 sequence (Q9BUL5 338-393): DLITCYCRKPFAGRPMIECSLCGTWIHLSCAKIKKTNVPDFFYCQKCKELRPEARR
# T2: PHD finger of PHF23 (aa 338-393), L358M cancer-relevant mutant (human, UniProt Q9BUL5 338-393, L358M)
# T2 construct: human PHF23, PHD domain, aa 338-393, with the cancer-relevant mutation L358M (Cosmic); also called PHF23PHD L358M; source: E. coli BL21 (DE3) RIL, grown and purified as wild-type protein
# T2 sequence (looked up): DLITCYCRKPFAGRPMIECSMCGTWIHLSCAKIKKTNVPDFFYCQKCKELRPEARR
# T3: PHD finger of PHF23 (aa 338-393), R345L cancer-relevant mutant (human, UniProt Q9BUL5 338-393, R345L)
# T3 construct: human PHF23, PHD domain, aa 338-393, with the cancer-relevant mutation R345L (Cosmic); also called PHF23PHD R345L; source: E. coli BL21 (DE3) RIL, grown and purified as wild-type protein
# T3 sequence (looked up): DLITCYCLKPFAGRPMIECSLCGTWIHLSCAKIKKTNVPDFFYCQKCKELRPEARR
# B1: histone H3K4me3 peptide (aa 1-12 of H3K4me3) (peptide, UniProt P68431 2-13, looked up)
# peptide: ART[Lys(Me3)]QTARKSTG
# notes: histone H3, residues 1-12, trimethylated on Lys4; source: synthetic peptide (SynPeptide)
# B2: PHD finger of PHF23 (aa 338-393), wild type (domain or fragment, human, UniProt Q9BUL5 338-393, looked up)
# chain: DLITCYCRKPFAGRPMIECSLCGTWIHLSCAKIKKTNVPDFFYCQKCKELRPEARR
# notes: human PHF23, PHD domain, aa 338-393, cloned into pGEX 6p-1; 15N- or 13C,15N-labelled for NMR; also called PHF23PHD; WT PHF23PHD; source: E. coli BL21 (DE3) RIL, purified (glutathione Sepharose 4B, GST cleaved, size exclusion chromatography)
# B3: histone H3K4me0 peptide (unmodified H3) (peptide)
# chain: ARTKQTARKSTG
# modifications: unmodified Lys4. Limits 1-12 taken from the H3K4me3 peptide of the same titration series
# Columns and labels:
# [1] = target: T1, PHF23 PHD finger (PHF23PHD); assay: 1H, […] HSQC NMR titration; nonreducing SDS-PAGE; format: binding
# [2] = target: PHD finger of PHF23 (aa 338-393), wild type (human) (UniProt Q9BUL5); assay: other fluorescence titration; intrinsic tryptophan fluorescence, 25 °C; 2.0 µM PHF23PHD with increasing peptide, PBS (pH 6.5), 1 mM TCEP, excitation 295 nm; Kd averaged over three experiments
# [3] = target: histone H3K4me3 peptide (Homo sapiens) (UniProt P68431); conditions: cited from earlier work
# [4] = target: histone H3K4me3 peptide (Homo sapiens) (UniProt P68431); conditions: cited from earlier work; remark: listed apart in the source
# [5] = target: B2; assay: NMR titration; 1H,15N HSQC at 298 K; 0.1 mM 15N-labeled PHD in PBS (pH 6.5), 1 mM TCEP, 8% D2O; histone H3 peptide titrated in; Kd from chemical shift changes against peptide concentration; conditions: both partners purified
# [6] = target: PHD finger of PHF23 (aa 338-393), R345L cancer-relevant mutant (human, UniProt Q9BUL5 338-393, R345L)
# [7] = target: PHD finger of PHF23 (aa 338-393), L358M cancer-relevant mutant (human, UniProt Q9BUL5 338-393, L358M)
# [8] = target: B2; assay: other fluorescence titration; intrinsic tryptophan fluorescence, 25 °C; 2.0 µM PHF23PHD with increasing peptide, PBS (pH 6.5), 1 mM TCEP, excitation 295 nm; Kd averaged over three experiments; conditions: both partners purified
# [9] = target: T2, PHD finger of PHF23 (aa 338-393), L358M …; assay: as above; conditions: both partners purified
# [10] = target: T3, PHD finger of PHF23 (aa 338-393), R345L …; assay: as above; conditions: both partners purified
# [11] = target: the molecule itself; assay: crystal structure; PHF23PHD crystallized in the presence of H3K4me3 peptide; 0.1 M Tris pH 8.65, 25% tert-butanol, 18 °C; 2.9 Å; the peptide is not in the structure
molecule,measurement,setting,value
"CCN(CC)C(=S)SSC(=S)N(CC)CC [DS, disulfiram]","1H,15N HSQC NMR titration; nonreducing SDS-PAGE",[1],"Gradual addition of AD or DS to PHF23PHD induced small but significant CSPs in the protein, indicative of direct interactions"
histone H3K4me2 peptide,Kd,[2],8 µM
BPTF PHD (from UniProt Q12830),Kd,[3],3 µM
KDM5A PHD (from UniProt P29375),Kd,[4],0.9 µM
ARTK(Me)QTARKSTG [histone H3K4me1 peptide],Kd,[5],580 µM
B1,Kd,[6],4.3 µM
same,Kd,[7],2.4 µM
same,Kd,[8],2 µM
same,binding result,[9],binds
same,binding result,[10],binds
B2,binding result,[11],binds
B3,Kd,[5],1600 µM
